Assay results taken from patent US20210355180A1.

Columns and labels:
[1] = biological target: N-terminally biotinylated human Aβ1-40 peptide (human); test: ELISA, ABD periplasm captured on anti-ABD, 2 nM biotinylated hAβ1-40
[2] = biological target: N-terminally biotinylated human Aβ1-40 peptide (human); test: SPR (Biacore 2000), periplasm diluted 15x over hAβ1-40 surface (blank control)

Chain of N-terminally biotinylated human Aβ1-40 peptide (human) (peptide, as listed by the source): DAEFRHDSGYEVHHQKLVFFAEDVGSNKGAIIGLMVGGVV

“ABD (albumin binding domain GA3 from streptococcal Protein G), periplasm control (from UniProt P19909 254-299)” was tested, and the ELISA response (absorbance 450 nm) [1] was 0.063 AU and the Response RU [2] was 2 RU.
